Data reported in patent US20240262917.

Columns and labels:
[1] = molecular target: ALK LF655del cleavage site mutant
[2] = molecular target: Full-length human anaplastic lymphoma kinase (ALK) receptor, wild type
Chain of Full-length human anaplastic lymphoma kinase (ALK) receptor, wild type (chain, as listed by the source): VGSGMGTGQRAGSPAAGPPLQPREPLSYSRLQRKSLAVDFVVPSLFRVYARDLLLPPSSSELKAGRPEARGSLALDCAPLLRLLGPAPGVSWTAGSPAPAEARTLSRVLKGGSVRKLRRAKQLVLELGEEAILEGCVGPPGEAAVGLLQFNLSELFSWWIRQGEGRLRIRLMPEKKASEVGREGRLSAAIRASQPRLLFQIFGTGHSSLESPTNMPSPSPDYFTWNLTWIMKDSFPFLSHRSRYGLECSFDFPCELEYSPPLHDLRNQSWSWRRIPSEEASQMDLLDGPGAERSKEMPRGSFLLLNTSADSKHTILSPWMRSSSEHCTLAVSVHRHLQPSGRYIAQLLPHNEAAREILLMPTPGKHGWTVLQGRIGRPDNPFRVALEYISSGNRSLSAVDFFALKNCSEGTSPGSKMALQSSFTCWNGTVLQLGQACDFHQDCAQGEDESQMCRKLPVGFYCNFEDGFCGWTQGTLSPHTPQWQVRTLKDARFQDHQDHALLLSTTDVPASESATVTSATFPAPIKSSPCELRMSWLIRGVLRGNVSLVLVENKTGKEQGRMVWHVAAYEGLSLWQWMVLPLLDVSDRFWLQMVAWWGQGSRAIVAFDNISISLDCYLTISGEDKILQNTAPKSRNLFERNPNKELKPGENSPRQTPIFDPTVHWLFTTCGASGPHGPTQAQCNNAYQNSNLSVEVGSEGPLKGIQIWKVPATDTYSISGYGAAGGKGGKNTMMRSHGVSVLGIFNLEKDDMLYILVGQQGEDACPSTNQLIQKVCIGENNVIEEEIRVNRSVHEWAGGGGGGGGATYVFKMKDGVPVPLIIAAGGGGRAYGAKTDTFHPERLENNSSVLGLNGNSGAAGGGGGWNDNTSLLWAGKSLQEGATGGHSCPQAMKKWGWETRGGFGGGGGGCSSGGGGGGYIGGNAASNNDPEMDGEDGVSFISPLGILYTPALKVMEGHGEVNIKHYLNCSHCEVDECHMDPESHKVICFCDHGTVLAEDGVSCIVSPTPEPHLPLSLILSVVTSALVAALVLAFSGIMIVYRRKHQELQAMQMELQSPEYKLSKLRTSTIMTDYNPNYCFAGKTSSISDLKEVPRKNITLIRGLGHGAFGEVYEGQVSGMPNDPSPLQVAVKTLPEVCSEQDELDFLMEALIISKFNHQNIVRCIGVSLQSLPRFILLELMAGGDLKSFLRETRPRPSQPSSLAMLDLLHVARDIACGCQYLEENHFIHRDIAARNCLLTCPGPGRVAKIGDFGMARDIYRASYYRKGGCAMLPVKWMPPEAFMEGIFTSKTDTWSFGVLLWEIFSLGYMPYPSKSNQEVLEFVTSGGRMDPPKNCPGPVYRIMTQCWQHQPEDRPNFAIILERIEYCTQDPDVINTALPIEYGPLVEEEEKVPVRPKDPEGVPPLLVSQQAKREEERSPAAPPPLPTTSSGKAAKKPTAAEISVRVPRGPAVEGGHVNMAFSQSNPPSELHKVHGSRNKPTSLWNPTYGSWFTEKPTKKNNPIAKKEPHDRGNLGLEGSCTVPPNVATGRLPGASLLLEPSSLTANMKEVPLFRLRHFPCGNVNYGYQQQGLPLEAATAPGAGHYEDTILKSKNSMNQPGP

Chain of ALK LF655del cleavage site mutant (chain, as listed by the source mutant): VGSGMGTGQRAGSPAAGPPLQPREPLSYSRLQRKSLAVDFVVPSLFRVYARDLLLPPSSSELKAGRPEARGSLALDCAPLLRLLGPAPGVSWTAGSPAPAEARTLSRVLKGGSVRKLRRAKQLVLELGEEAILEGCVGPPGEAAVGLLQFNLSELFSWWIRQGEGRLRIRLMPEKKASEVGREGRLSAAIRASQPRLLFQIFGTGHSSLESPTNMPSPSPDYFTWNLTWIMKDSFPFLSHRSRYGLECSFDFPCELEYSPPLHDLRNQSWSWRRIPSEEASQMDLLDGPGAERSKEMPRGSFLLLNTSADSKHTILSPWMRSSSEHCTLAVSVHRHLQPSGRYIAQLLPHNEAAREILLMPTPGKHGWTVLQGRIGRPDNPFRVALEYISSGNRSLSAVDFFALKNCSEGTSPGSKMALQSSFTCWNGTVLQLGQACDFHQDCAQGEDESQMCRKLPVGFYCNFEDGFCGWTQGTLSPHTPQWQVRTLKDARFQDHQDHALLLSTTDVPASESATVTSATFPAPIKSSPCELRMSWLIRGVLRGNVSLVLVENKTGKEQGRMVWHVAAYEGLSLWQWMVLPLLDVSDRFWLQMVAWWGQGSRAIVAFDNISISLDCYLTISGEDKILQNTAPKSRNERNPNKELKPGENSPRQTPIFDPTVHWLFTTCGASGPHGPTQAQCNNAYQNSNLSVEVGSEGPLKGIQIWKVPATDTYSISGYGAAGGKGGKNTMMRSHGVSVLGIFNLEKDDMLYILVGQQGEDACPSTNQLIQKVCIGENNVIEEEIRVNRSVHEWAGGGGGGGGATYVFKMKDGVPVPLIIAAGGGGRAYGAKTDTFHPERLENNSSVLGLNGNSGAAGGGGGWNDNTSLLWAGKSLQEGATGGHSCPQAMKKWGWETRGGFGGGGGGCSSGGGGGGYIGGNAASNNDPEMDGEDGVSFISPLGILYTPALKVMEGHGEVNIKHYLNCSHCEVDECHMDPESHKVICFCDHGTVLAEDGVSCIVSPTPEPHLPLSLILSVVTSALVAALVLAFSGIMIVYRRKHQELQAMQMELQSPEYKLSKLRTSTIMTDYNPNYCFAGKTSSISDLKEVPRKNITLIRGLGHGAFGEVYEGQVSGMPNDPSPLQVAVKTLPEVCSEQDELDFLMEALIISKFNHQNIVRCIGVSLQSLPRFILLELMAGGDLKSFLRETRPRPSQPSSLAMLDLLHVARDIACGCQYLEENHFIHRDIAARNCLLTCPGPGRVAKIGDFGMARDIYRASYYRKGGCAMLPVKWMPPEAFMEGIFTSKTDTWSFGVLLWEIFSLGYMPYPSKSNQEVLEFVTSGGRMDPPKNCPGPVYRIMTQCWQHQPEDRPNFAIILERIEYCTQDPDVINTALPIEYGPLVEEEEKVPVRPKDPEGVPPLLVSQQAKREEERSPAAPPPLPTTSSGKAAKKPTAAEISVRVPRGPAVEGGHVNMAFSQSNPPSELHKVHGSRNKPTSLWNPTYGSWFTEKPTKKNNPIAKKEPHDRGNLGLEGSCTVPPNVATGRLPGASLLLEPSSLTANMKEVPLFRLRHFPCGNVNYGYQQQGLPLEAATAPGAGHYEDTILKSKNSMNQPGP

B1: Full-length recombinant human MMP-9 (protein)
chain: APRQRQSTLVLFPGDLRTNLTDRQLAEEYLYRYGYTRVAEMRGESKSLGPALLLLQKQLSLPETGELDSATLKAMRTPRCGVPDLGRFQTFEGDLKWHHHNITYWIQNYSEDLPRAVIDDAFARAFALWSAVTPLTFTRVYSRDADIVIQFGVAEHGDGYPFDGKDGLLAHAFPPGPGIQGDAHFDDDELWSLGKGVVVPTRFGNADGAACHFPFIFEGRSYSACTTDGRSDGLPWCSTTANYDTDDRFGFCPSERLYTQDGNADGKPCQFPFIFQGQSYSACTTDGRSDGYRWCATTANYDRDKLFGFCPTRADSTVMGGNSAGELCVFPFTFLGKEYSTCTSEGRGDGRLWCATTSNFDSDKKWGFCPDQGYSLFLVAAHEFGHALGLDHSSVPEALMYPMYRFTEGPPLHKDDVNGIRHLYGPRPEPEPRPPTTTTPQPTAPPTVCPTGPPTVHPSERPTAGPTGPPSAGPTGPPTAGPSTATTVPLSPVDDACNVNIFDAIAEIGNQLYLFKDGKYWRFSEGRGSRPQGPFLIADKWPALPRKLDSVFEERLSKKLFFFSGRQVWVYTGASVLGPRRLDKLGLGADVAQVTGALRSGRGKMLLFSGRRLWRFDVKAQMVDPRSASEVDRMFPGVPLDTHDVFQYREKAYFCQDRFYWRVSSRSELNQVDQVGYVTYDILQCPED
[1]
  in vitro cleavage assay (western blot of ALK): but not the ALK LF655del protein
[2]
  in vitro cleavage assay (western blot of ALK): Treatment of purified WT ALK, but not the ALK LF655del protein, with recombinant human MMP-9 resulted in ALK cleavage
